Assay: yeast display, Sf9 membrane polyspecificity reagent, FACS + sequencing; frameworks hold sequencing errors
Method in brief: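 Using colony PCR, genes from sorted yeast display clones were amplified, then sequenced on MiSeq at 2 × 250 and filtered by CDR length. The clones had been stained with 10% biotinylated, detergent-solubilized Sf9 membrane reagent for 1 hour at 4 °C and sorted by FACS into low and high (top ~1%) gates on anti-HA and streptavidin fluorescence. Polyreactivity labels come from the gate of origin.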

Sequence | polyreactivity (PSR sort gate)
QVQLVESGGGLVQAGGSLRLSCAASGSIFYFNAMGWYRQAPGKERELVAAINISGSSTSYADSVKGRFTISRDNAKNTVYLQMNSLKPEDTAVYYCYAGPYTYLHWNQAISRYYYWGQGTQVTVSS | low polyreactivity
QVQIVESGGGLVQAGGSLRLSSAASGITFRHYAMGWYRQAPGKERELVAAITSRGGSTYYADSVKGRFTISRDNAKNTVYLQMNSLKPEDTAVYYCAKGTVHSRPDFGRGWYRWDDYWGQGSQVTVSS | high polyreactivity
QVQLVESGGGLVQAGCSLRLSCAASGRNFRYYAMGLYRQAPGKERELVAAIDTGDTYYADSVKGRFTISRDNAKYTGYLQMNSLKPEDTAVYYSAAEGSTSLDDYWGQGTQVTVSS | high polyreactivity
QVQLVESGGGLVQAGGSLRLSCAASGSIFGQNAMGWYRQAPGKERELVAAITSGAGITYYADSVKGRFTISRDNAKNTVYLQMNSLKPEDTAVYYCNAVPSWTPSPLFDYWGLGTQVTVSS | low polyreactivity
QVQLVESGGGLVQAGGSLRLSCAASGFIFGSYTMGWYRQAPGKERELVAAISWSSGCSTYYADSVKGRFTISRDNAKNTVYLQMNSLKPEDTAVYYCAARHRGAGRNDFYYWGQGTQVTVSS | high polyreactivity
QVQLVESGGGLVQAGGSLRLSCAASGRTFGKNAMGWYRQAPGKEREFVAAITSRGGSTYYADSVKGRFTISRDNAKNTVYLQMNSLKPEDTAVYYCNREYKRPSQRTEHYYWGQGTQVTVSS | low polyreactivity
QVQLVESGGGLVQAGGSLRLSCAASGSTFVYYAMGWYRQAPGKERALVASITTSAGSTYYADSVKGRFTISRDTAKNSVYLQMNSLKPEDTAVYYCNARITITYYYWGQGTQVTVSS | high polyreactivity
QVQLVESGGGLVQAGGSLRLSCAASGSTFAANAMGWYRQAPGKERELVAAMTSSGGSTYYADSVKGRFTISRDNAKNTVYLQMNSLKPEDTAVYYCNKDIERYVRIYDSWGQGTQVTVSS | low polyreactivity
QVQLVESGGGLVQAGGSLRLSCAASGGTFSSYAMGWYRPAPGKERELVADITRRGGSTYYADSVKGRFTISRDNAKNTVYLQMNSLKPEDTAVYYCAKDYFRRGLWGFSIYGYWGQGTQVTVSS | high polyreactivity
QVQLVESGGGLVQAGGSLRLSCAASGFIFYYNAMGWYRQAPGKERELVAAISASGDRTYYADSVKGRFTISRDNAKNTVYLQMNSLKPEDTAVYYCAARSQGARYSSRRRFGDYWGQGTQVTVSS | high polyreactivity
QVQLGESGGGLVQAVGSLRLSCAASGITFVYYAMGWSRQEPGKERELVSSISSADNTNYADSVKGRFTISRDNAKNTVYLQMNSLKPEDTAVYYCAADYWWHLRHYSTGGYWGQGTQVTVSS | low polyreactivity
QVQLVESGGGLVQAGGSLRLSCAASGRIFDFNPMGWYRQAPGKEREVVAAISSGGRTKYADSVKGRFTISRDNAKNTVYLQMNSLKPEDTAVYYCAASGSQPDDYWGQGTQVTVSS | high polyreactivity
QVQLVESGGGLVQAGGSLRLSCAASGRIFYLNAMGWYRQAPGKERELVAAMSGSTGSTYYADSVKGRFTISRDNAKNTVYLQMNSLKPEDTAVYYCNAVLSSNTKWRYPGDYWGQGTQVTVSS | low polyreactivity
QVQLVESGGGLVKAGGSLRLSCAASGLNFNRYTMGWNRQAPGKERELVAVIDCSGGSTRYADSVKGRFTISRDNAKNTVDLQMNSLKPEDTAVYYCDYYWAQGTQVTVSS | low polyreactivity
QVQLVESGVALVQAGGSLRLSCAASGSILYPYAMGWYRQAPGKERELVAAITKTDGSTYYADSVKWRFTISRDNAKNTVYLQMNSLTPEDTAVYCCNAKWTLRWYFPYWSEYDYWGQGTQVTVSS | low polyreactivity
QVQLVESGVGLVQAGGSLRLSCAASGIIFLENAMGWYRQAPGKERELVAGISSGGNTNYADSVKGRFTISRDNAKNTDYLQMNSLKPEDTAVYYCNTDWYLPRYVLLGYFSGTEDSWGQGTQVTVSS | low polyreactivity
QVQLVESGGGLVQAGGSLRLSCAASGRIFSVNAMGWYRQAPGKERELVASISWSGGSTYYADSVKGRFTISRDNAKNTVYLQMNSLKPEDTAVYYCARGYWVYYPDGDYWGQGTQVTVSS | low polyreactivity
QVQLLESGGGLVQAGGTLRLSCAASGITFTVYTMGWYRQAPGKERELVAAIDSDGITNYADSVKGRFTISRDNAKNTVYLQMNSLKPEDTAVYYCAKQSGRADGVSGFDYWGQGTQVTVSS | low polyreactivity
QVQLVESGGGLVQAGGSLRLSCAASGRIFRRNAMGWYRQAPGKERELVAAITSNGGRTYYADSVKGRFTISRDNAKNTVYLQMNSLKPEDTAVYYCAADTYDNDYYYWGQGTQVTVSS | high polyreactivity
QVQLVESGGGLVQAGGSLRLSCAASGRIFTRNVMGWYRQAPGKERELVARINSGGRTYYADSVKGRFTISRDNAKNTVYLQMNSLKPEDTAVYYCAVPFYWYSPMDSWGQGTQVTVSS | high polyreactivity
QDQLVESGGGLVQAGGSLRLSCAASGLSFASYVMGWYRQAPGKERELVAAISSSGDSTYYADSVKGRFTLSRDNAKNTVYLQMNSLKPEDTAVYYCAAKDYVWGQGTQVTVSS | low polyreactivity

Sequence | polyreactivity (PSR sort gate)
QVQLVESGGGLVQAGGSLRLSCAASGRIFGNNVMGWYRQEPGKERELVAAITFSGTSTYYADSVKGRFTISRDNAKNTVYLQMNSLKPEDTAVYYCAKYRYADYYSPGYDYWGQGTQVTVSS | low polyreactivity
QVQLVDSGGGLVQAGGSLRLSCSASGRIFLRYPMGCYRQSPGKERELVAVITWSGGSTNYADSVKGRFTISRDNAKNTVYLQMNSLKPEDTAVYYCAVDNTGRSWPYDYWGQGTQVTVSS | low polyreactivity
QVQLVESGVGLVQAGVSLRLSSAASGSIFRLYTMGWYRQATGKERELVAAITWSGGRTYYADSVKGRFTISRDNAKNTVYLQMNSLKPEDTAVYYCAADNWYSTYDYWGRGTQVTVSS | high polyreactivity
QVQLVESGGGLVQAGGSLRLSCAASGLIFLTYARGWYRQAPGKERELVATISGSTGGTYYADSVKGRFTISRDNAKNTVYLQMNSLKPEDTAVYYCNASVFQSEYDYWGQGTQVTVSS | low polyreactivity
QFQLVESGGGLVQAGGSLRLSCAASGSTFTPYDMGWYRQAPGKERELVAVITGSDGTYYADSVKGRFTISRDNAKNTVYLQMNSLKPEDTAVYYCATDWTFGRWSTLGVEMDYWGQGTQVTVSS | low polyreactivity
QVQLVESGGGLVQAGGSLRLSCAASGSIFDYNGMGWYRQAPGKERELVAAISSGGSTNYADSVKGRFTISRDNAKNTVYLQMNSLKPEDTAVYYCAAVGRAKYYYWGQGTQVTVSS | low polyreactivity
QVQLVESGVGLVQAGGSLRLSCAASGFTFSYYAMGWYRKAPGKERELVAGITTGGGTNYADSVKGRFTISRDNAKNTVYLQMNSLKPEDPAVYYCNAVGAHWVSYSSPVRFDYWGQGTQVTVSS | low polyreactivity
QVQLVESGGGLVQAGGSLRLSSAASGRTLSKNAMGWYRQAPGKERELVATISSVGRTNYADSVKGRFTISRDNAKNTVYLQMNSLKPEDTAVYYCAATVRGKRSTYDYWGQGTQVTVSS | high polyreactivity
QVQLVESGGGIVQAGGSLRLSCAASGRIFAYYAMGWYRQAPGKERELVAAISTSGGSTYYADSVKGRFTISRDNAKNTVYLQMNSLKPEDTAVYYCAAEFGGGRSTNFDYWGQGTQVTVSS | low polyreactivity
QDQLVESGGGFVQAGGSLRLSCAASGFTFGSNTMGWSRQAPGKERELVAAITTSGDSTYYADSVKGRFTLSRDNAKNTVYLQMNSLKPEDTAVYDCAARRGYPRFEYWGQGTQVTVSS | high polyreactivity
QVQIVESGGGLVQAGGSLRLSCAASGSTFDDYVMGWYRQAPGKEREFVAAISTNGGSTYYADSVKGRFTISRDNAKNTVYLQMNSLKPEDTAVYYCAAESQDFYAILGLYDYWGQGTQVTVSS | low polyreactivity
QVQLVESGGGLVQAGGSLRLSCAASGRIFTYNPMGWYRQAPGKERELVAVISRRGGSTYYADSVKGRFTISRDNAKNTVYLQMNSLKPEDTAVYYCAADLPSYPYEYWGQGTQVTVSS | low polyreactivity
QVQLVESGGGLVQAGGSLRLSCAASGSTFDIYAMGWYRQAPGKERKLVAVISGGDGSTYYADSVKGRFTISRDNAKNTVYLQMNSLKPEDTAVYYCEYDYWGQGTQVTVSS | low polyreactivity
QVQLVESGGGLVQAGGSLRLSCAASGSIFPYNDMGWYRQAPGKERELVAAISDSAGSTYYADSVKGRFTISRDNAKNTVYLQMNSLKPEDTAVYYCAADSWDSQVVSYEYWGQGTQVTVSS | low polyreactivity
QVHLVESGGALVQAGGSLRLSCAASGFTFHTYASRLYRQAPGKEREFVAAISYSGGNTYYADSVKGHFTISRDNAKKTVYLHMNSLKPEDTAVYYCAAQYYYRYYWGPGTQVTVSS | high polyreactivity
QVQLVESVGGLVKAGGSLRLSCAASGSIFGTNAMGWYRQAPGKERELVAVISDGGSTYYADSVKGRFTISRENAKNTVYLQMNSLKPADTAVYYCNTPLESPFYSRVGTTESDHWGQGTQVTVSS | low polyreactivity
QVQLVESGGGLVQAGGSLRLSCAASGSIFQGYAMGWYRQAPGKERELVAVITSRVGRTYYADSVKGRFTISRDNAKNTVYLQMNSLKPEDTAVYYCAAKLYGGWYRDFAASGMDYWGQGTQVTVSS | high polyreactivity
QVQLVESGGGLVQAGGSLRLSCAASGIIFYGYVMGWYRQAPGKERELVAAISKSGGSTYYADSVKGRFTISRDNAKNTVYLQMNSLKPEETAVYYCAAERKSFYRYNYWGQGTQVTVSS | high polyreactivity
QVQLVESGGGLVQAGGSLRLSCAASGFTFGGYAMGWYRQAPGKERELVAAISKSGGRTYYADSVKGRFTISRDNAKNTVYLQMNSLKPEDTAVYYCAASTIWHYDSWGQGTQVTVSS | high polyreactivity
QVQLVESGGGLVQAGGSLRLSCAASGFTFTSYTMGWYRQAPGKERELVAAISYSGGNTYYADSVKGRFTISRDNAKNTVYLQMNSLKQEDTAVYYCAARYWYDSSNYSYDYWGQGTQVTVSS | low polyreactivity

— the nanobody polyreactivity screen of Harvey et al. (2022)
